Legend:
Experiment in all cases: ELISA
[1] = molecular target: N8 NA (head domain plus stalk region) from A/gyrfalcon/41088-6/2014 (H5N8) (Influenza A virus …, UniProt A0A0C4WVM3, strain)
[2] = molecular target: N3 NA (head domain plus stalk region) from A/swine/Missouri/2124514/2006 (H2N3) (Influenza A virus …, UniProt A9YN63, strain)
[3] = molecular target: T1, N2 NA head domain from A/Japan/305/1957 (H2N2) (Influenza A virus A/Japan/305/1957 …, strain)
T1 chain: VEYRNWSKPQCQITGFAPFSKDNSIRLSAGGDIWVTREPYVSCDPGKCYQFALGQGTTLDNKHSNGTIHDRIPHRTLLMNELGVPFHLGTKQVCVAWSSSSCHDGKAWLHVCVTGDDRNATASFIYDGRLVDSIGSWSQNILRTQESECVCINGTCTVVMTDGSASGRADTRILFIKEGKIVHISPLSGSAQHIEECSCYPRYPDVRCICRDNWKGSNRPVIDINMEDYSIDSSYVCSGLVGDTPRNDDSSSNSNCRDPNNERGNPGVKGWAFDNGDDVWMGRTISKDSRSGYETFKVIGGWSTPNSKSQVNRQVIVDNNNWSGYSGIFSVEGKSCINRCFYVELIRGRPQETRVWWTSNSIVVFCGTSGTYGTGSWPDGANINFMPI

[4] = molecular target: N1 NA head domain (residue 82-469) from A/Brevig Mission/1/1918 (H1N1) (Influenza A virus A/Brevig …, UniProt Q9IGQ6)

Measured: binding result

N1 NA head domain (residue 82-469) from A/Brevig Mission/1/1918 (H1N1), sequence (Q9IGQ6 82-469): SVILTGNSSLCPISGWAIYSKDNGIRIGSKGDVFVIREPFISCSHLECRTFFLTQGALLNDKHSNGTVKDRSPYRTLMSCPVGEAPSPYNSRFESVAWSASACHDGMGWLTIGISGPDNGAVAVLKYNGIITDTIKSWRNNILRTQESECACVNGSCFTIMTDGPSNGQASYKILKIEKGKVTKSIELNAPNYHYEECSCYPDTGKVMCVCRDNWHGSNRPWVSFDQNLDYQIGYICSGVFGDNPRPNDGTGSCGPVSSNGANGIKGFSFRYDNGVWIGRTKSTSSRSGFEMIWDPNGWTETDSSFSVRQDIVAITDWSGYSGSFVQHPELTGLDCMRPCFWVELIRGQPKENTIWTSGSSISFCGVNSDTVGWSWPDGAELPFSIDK

B1: 1122A11 (human IgG1 mAb) (antibody, V domains shown)
VH: QVQLVQSGAEVSKPGASVKVSCKASGYSFTSQSLGWVRQAPGQGLEWMGIINPSGGITNYAHKFQGRVTMTRDTSTSTVYMELSSLRSEDTALYYCVRDLSHYNEVGHDRAYYYGMDIWGQGTTVTVSS
VL: SYELIQPPSVSVSPGQTASITCSGDKLGKKYTCWYQQKPGQSPVLVIYQDNKRPSGIPERFSGSNSGNTATLTISGTQAMDEADYYCQAWDSSAVVFGGGTKLTVL
binds: all assays above
